# According to patent US11759508B2, “Antigenic peptides for treatment of B-cell malignancy” (ENTEROME S.A., priority 2019, dated 2023):
# “Also recorded” adds a separate entry of the source.
# Legend:
# HLA-A*0201 = molecular target: T1, HLA-A*0201 (Homo sapiens, UniProt P04439, D140Y/D185E/D98H/E176V/E277Q/G131W/G231S/I119V/I121R/I166T/I218V/L300P/L318F/N151K/N90K/P208A/P217A/Q86G/Q94H/R138H/R169H/T345S); assay: Affinity of the peptide to T2 cell line (HLA-A*0201 expression, FACS, relative to HIV pol 589-597); type: binding; settings: for Concentration of peptide that induces 20% of HLA-A2 expression: T2 cells, peptide 100-0.1 μM, 16 h, 37° C., anti-HLA-A2 FACS; for mean relative fluorescence intensity of T2 cells: normalized to HIV peptide = 100
# T1 construct: human tumoral cell T2 which expresses the HLA-A*0201 molecule; endogenous in cells; host or cells: T2 cells (human, TAP1/2 negative)
# Description: The experimental protocol is similar to the one that was validated for peptides presented by the HLA-A*0201 (Tourdot et al., A general strategy to enhance immunogenicity of low-affinity HLA-A2.1-associated peptides: implication in the identification of cryptic tumor epitopes. Eur J Immunol. 2000 December; 30(12):3411-21). Affinity measurement of the peptides is achieved with the human tumoral cell T2 which expresses the HLA-A*0201 molecule, but which is TAP ½ negative and incapable of presenting endogenous peptides.
# (§1) T2 cells (5.104 cells per well) are incubated with decreasing concentrations of peptides from 100 μM to 0.1 μM (4 points: 100 μM, 10 μM, 1 μM, 0.1 μM) in serum-free medium (TexMacs) supplemented with […] of β2 Microglobulin at 37° C. for 16 hours. Cells are then washed two times and marked with the anti-HLA-A2 antibody coupled to PE (clone BB7.2, BD Pharmagen).
# The analysis is achieved by FACS (Macsquant analyzer 10-Miltenyi).
# For each peptide concentration, the geometric mean of the labelling associated with the peptide of interest is subtracted from background noise and reported as a percentage of the geometric mean of the […] labelling obtained for the reference peptide HIV pol 589-597 at a concentration of 100 μM. […] A2. Solubilisation of Peptides
# as §1, with “32” for “β2”
# For each peptide concentration, the geometric mean of the labelling associated with the peptide of interest is subtracted from background noise and reported as a percentage of the geometric mean of the […] labelling obtained for the reference peptide HIV pol 589-597 at a concentration of 100 μM.
# [1] = tested on: HLA-A2 HHD-DR3 humanized mice; assay: ELISPOT-IFNγ on splenocytes of vaccinated HLA-A2 HHD-DR3 transgenic mice; type: in vivo, mouse; settings: for immunogenicity (ELISPOT-IFNγ), FIGS. 11-13: HHD DR3 mice (printed as HHD DR1); for cross-reactivity of the T cells for the corresponding human peptides: summary statement for HHD DR3 and HHD DR1 mice
# Description: (§2) Briefly, HLA-A2 HHD-DR1 humanized mice (C57BL/6JB2mtm1UncIAb-/-Tg(HLA-DRA, HLA-DRB1*0101)#GjhTg(HLA-A/H2-D/B2M)1Bpe) or HHD-DR3 humanized mice (C57BL/6JB2mtm1UncIAb-/-Tg(HLA-DRA,HLA-DRB1*0301)#GjhTg(HLA-A/H2-D/B2M)1Bpe) were assigned randomly (based on mouse sex and age) to experimental groups, wherein each group was immunized with a specific vaccination peptide (vacc-pAg) combined to a common helper peptide (h-pAg UCP2; sequence: […]; SEQ ID NO: 475; for HHD DR1 mice or h-pAg DR3; sequence […]; SEQ ID n° 473; for HHD DR3 mice) (as outlined in Table 4 below).
# (§3) The peptides were provided as follows: • vacc-pAg: CD22-B1, CD19-B1, CD19-B2, CD37-B1, TNFRSF13C-B1 and MS4A1-B4 all produced and provided at a 4 mg/ml (4 mM) concentration; • h-pAg: DR3 or UCP2 re-suspended in pure distilled water at a 10 mg/mL concentration
# (§4) The peptide formulation to be injected (emulsion) was prepared freshly on each day of injection and for each group. A mix for 10 animals was prepared using 2 mL luer lock syringes (460670 IV, B BRAUN) and luer connectors (Cole-Parmer, 45502-22): 500 μL of peptide mixture in syringe 1 was emulsified with 500 μL of IFA contained in syringe 2, at high speed as fast as possible until forming a thick (white foam) emulsion. Each emulsion was prepared in excess to compensate for the dead volumes at injection.
# (§5) The animals were immunized on day 0 (do) with a prime injection, and on d14 with a boost injection. Each mouse was injected s.c. at tail base with 100 μL of an oil-based emulsion that contained: • 60nMole of vacc-pAg; 105nMole of UCP2 helper peptide (for HHD-DR1 mice) or 65nMole of DR3 helper peptide (for HHD-DR3 mice) • 10 μL of PBS to reach a total volume of 50 μL (per mouse); • Incomplete Freund's Adjuvant (IFA) added at 1:1 (v:v) ratio (50 μL per mouse). A.2 Analysis
# (§6) Seven days after the boost injection (i.e. on d21), the animals were euthanized and the spleen was harvested. Splenocytes were prepared by mechanical disruption of the organ followed by 70 μm-filtering and Ficoll density gradient purification.
# (§7) The cell suspensions were further used in an ELISPOT-IFNγ assay (Table 5). The cells were cultured in 200 μL of complete T cell medium. Experimental conditions (duplicates) were as follow: 2×10^5 total cells per well when cultured in presence of various pAg (10 μM) or medium-only; and 2×10^4 total cells when cultured in presence of CD3/CD28-loaded bead particles (T cell Activation/Expansion kit, 130-093-627, Miltenyi) (bead-to-cell ratio of 1:1). The cultures were assessed for their capacity to secrete IFNγ (Diaclone Kit Murine IFNγ ELISpot, 862.031-005PC), following the manufacturer's instructions (˜16-18 h incubation time before performing the assay). The peptides used for restimulation are described in Table 5.
# (§8) Spots were counted on a CTL ELISpot reader. Data plotting and statistical analysis were performed with the Prism-5 software (GraphPad Software Inc.).
# (§9) The data were provided as a number of spots per 1·10^6 total T cells. The individual average values (obtained from the triplicates) were next used to plot the group average values. Statistical analysis for comparison (to the medium condition) were performed using unpaired non-parametric test (Mann Whitney) (**: p<0.01; *: p<0.05).
# [2] = tested on: HLA-A2 HHD-DR1 humanized mice; assay: ELISPOT-IFNγ on splenocytes of vaccinated HLA-A2 HHD-DR1 transgenic mice; type: in vivo, mouse; settings: for cross-reactivity: T cell reaction after challenge with the human corresponding peptide: HHD-DR1 mice vaccinated with the bacterial peptide; for immunogenicity (T cell response in ELISPOT-IFNγ after vaccination): HHD-DR1 mice, prime d0 and boost d14, splenocytes d21
# Description: as §2, §3, §4, §5, §6, §7, §8, §9
# [3] = tested on: CD8 T cells from PBMCs of HLA-A*02 healthy donors; assay: Detection of antigenic peptide-specific CD8 T cells with pMHC multimers after in vitro amplification; type: cell-based, human; settings: one HLA-A2 healthy donor, after cell amplification (FIG. 17)
# Description: In vitro amplification method and specific pMHC multimers have been used for identification of CD22-B1, CD37-B1, TNFRSF13C-B1 and MS4A1-B4 specific T cells. pMHC multimers were generated for all the bacteria peptides and their respective human counterpart. PBMCs from several HLA-A*02 healthy donors (up to 19 donors) were collected, enriched after CD137 and CD8 selection and subjected to multiple rounds of in vitro amplification with EO2463 peptides loaded T2 cells to increase the number of specific T cell clones. Detection of OMP peptide specific CD8 T cells using cytometry analysis with the fluorescent multimer was performed on enriched CD8 T cell populations
# [4] = tested on: T2 cells loaded with bacterial peptide or human counterpart peptide; assay: Cytotoxic assay of peptide-specific CD8+ T cells against peptide-loaded T2 cells (flow cytometry); type: cell-based; settings: for killing of T2 cells loaded with the bacteria peptide by peptide-specific human T cell clones: clones expanded in vitro, FIG. 18; for killing of T2 cells loaded with the human TNFR13C (BAFF-R) or MS4A1 (CD20) peptide by peptide-specific human T cell clones: when cross-reactivity is observed with the staining (FIG. 17)
# Description: CD8+ T cells expanded per above were used to perform cytotoxic assays in presence of different ratios of target and effector cells to assess their cytotoxic capacity, using flow cytometry readout. Target cells were T2 cell lines loaded with bacterial peptide or human counterpart peptide. Negative control was T2 cells unloaded and T2 cells loaded with irrelevant peptide. […] More importantly, CD22-B1, CD37B1, TNFRSF13C-B1 and MS4A1-B4-specific human T cells clones expanded in vitro were able to kill T2 cells loaded with the human TNFR13C (BAFF-R) or MS4A1 (CD20) peptide when cross-reactivity is observed with the staining (FIG. 17).
substance,measurement,setting,value
FMPGLLFGA [TNFRSF13C-B33],Concentration of peptide that induces 20% of HLA-A2 expression,HLA-A*0201,13.20 µM
LMFGAPALV [TNFRSF13C-B1],"immunogenicity (ELISPOT-IFNγ), FIGS. 11-13",[1],confirmed
same,cross-reactivity of the T cells for the corresponding human peptides,[1],shown
same,cross-reactivity: T cell reaction after challenge with the human corresponding peptide,[2],react strongly
same,immunogenicity (T cell response in ELISPOT-IFNγ after vaccination),[2],significant T cell responses; also recorded: strongly immunogenic
same,peptide-specific CD8 T cells detected with fluorescent multimer,[3],13%
same,Concentration of peptide that induces 20% of HLA-A2 expression,HLA-A*0201,4.35 µM
same,killing of T2 cells loaded with the bacteria peptide by peptide-specific human T cell clones,[4],capacity to kill
same,killing of T2 cells loaded with the human TNFR13C (BAFF-R) or MS4A1 (CD20) peptide by peptide-specific human T cell clones,[4],able to kill
MS4A1-B41 (ILNSLSLLL),Concentration of peptide that induces 20% of HLA-A2 expression,HLA-A*0201,2.45 µM
"SLFLGILSV (listed as Homo sapiens) [MS4A1-H5, reference compound]",mean relative fluorescence intensity of T2 cells,HLA-A*0201; peptide 0.1 (μM),0
same,mean relative fluorescence intensity of T2 cells,HLA-A*0201; peptide 1 (μM),1.8
same,mean relative fluorescence intensity of T2 cells,HLA-A*0201; peptide 10 (μM),6.5
LQMGGFYLL [CD19-B7],Concentration of peptide that induces 20% of HLA-A2 expression,HLA-A*0201,49.63 µM
LLVGILHLV [CD19-B1],cross-reactivity of the T cells for the corresponding human peptides,[1],shown
same,cross-reactivity: T cell reaction after challenge with the human corresponding peptide,[2],react strongly
same,immunogenicity (T cell response in ELISPOT-IFNγ after vaccination),[2],significant T cell responses; also recorded: strongly immunogenic
same,Concentration of peptide that induces 20% of HLA-A2 expression,HLA-A*0201,3.7 µM
GMAFVPLLL [CD37-B11],Concentration of peptide that induces 20% of HLA-A2 expression,HLA-A*0201,2.30 µM
"WVFEHPETL (listed as Homo sapiens) [CD22-H1, reference compound]",Concentration of peptide that induces 20% of HLA-A2 expression,HLA-A*0201,1.97 µM
YLFLGILSL [MS4A1-B5],Concentration of peptide that induces 20% of HLA-A2 expression,HLA-A*0201,6.77 µM
ILPGLLFGL [TNFRSF13C-B31],Concentration of peptide that induces 20% of HLA-A2 expression,HLA-A*0201,1.60 µM
YLAYLIFEL [CD19-B6],Concentration of peptide that induces 20% of HLA-A2 expression,HLA-A*0201,3.76 µM
"IMNSLSLFA (listed as Homo sapiens) [MS4A1-H4, reference compound]",Concentration of peptide that induces 20% of HLA-A2 expression,HLA-A*0201,>100 µM
"LMIPAGIYA (listed as Homo sapiens) [MS4A1-H3, reference compound]",Concentration of peptide that induces 20% of HLA-A2 expression,HLA-A*0201,4.83 µM
YILGGLLMV [MS4A1-B12],Concentration of peptide that induces 20% of HLA-A2 expression,HLA-A*0201,31.20 µM
AMNSLSLYI [MS4A1-B4],"immunogenicity (ELISPOT-IFNγ), FIGS. 11-13",[1],confirmed
same,cross-reactivity of the T cells for the corresponding human peptides,[1],shown
same,cross-reactivity: T cell reaction after challenge with the human corresponding peptide,[2],react strongly
same,immunogenicity (T cell response in ELISPOT-IFNγ after vaccination),[2],significant T cell responses; also recorded: strongly immunogenic
same,peptide-specific CD8 T cells detected with fluorescent multimer,[3],19.7%
same,Concentration of peptide that induces 20% of HLA-A2 expression,HLA-A*0201,12.3 µM
same,killing of T2 cells loaded with the bacteria peptide by peptide-specific human T cell clones,[4],capacity to kill
same,killing of T2 cells loaded with the human TNFR13C (BAFF-R) or MS4A1 (CD20) peptide by peptide-specific human T cell clones,[4],able to kill
ILIPAGIYL [MS4A1-B3],Concentration of peptide that induces 20% of HLA-A2 expression,HLA-A*0201,0.70 µM
SLVGILHII [CD19-B11],Concentration of peptide that induces 20% of HLA-A2 expression,HLA-A*0201,5.97 µM
"GLAFVPLQI (listed as Homo sapiens) [CD37-H1, reference compound]",Concentration of peptide that induces 20% of HLA-A2 expression,HLA-A*0201,7.35 µM
YVFEHPELL [CD22-B11],Concentration of peptide that induces 20% of HLA-A2 expression,HLA-A*0201,0.2 µM
"TLAYLIFCL (listed as Homo sapiens) [CD19-H6, reference compound]",Concentration of peptide that induces 20% of HLA-A2 expression,HLA-A*0201,4.98 µM
"LLFGAPALL (listed as Homo sapiens) [TNFRSF13C-H1, reference compound]",Concentration of peptide that induces 20% of HLA-A2 expression,HLA-A*0201,11.76 µM
TLLFLTPML [CD19-B2],cross-reactivity of the T cells for the corresponding human peptides,[1],shown
same,cross-reactivity: T cell reaction after challenge with the human corresponding peptide,[2],react strongly
same,immunogenicity (T cell response in ELISPOT-IFNγ after vaccination),[2],significant T cell responses; also recorded: strongly immunogenic
same,Concentration of peptide that induces 20% of HLA-A2 expression,HLA-A*0201,0.38 µM
